EP1659133

Columns and labels:
[1] = target: RSV F protein (C-terminal truncated) (respiratory syncytial virus, UniProt P03420); assay: SPR
[2] = target: T1, RSV F protein from infected HEp2 cell lysate (respiratory syncytial virus, UniProt P03420); assay: ELISA, apparent (unit printed as 10mm)
[3] = target: T1, RSV F protein from infected HEp2 cell …; assay: ELISA, apparent

RSV F protein (C-terminal truncated), sequence (P03420 26-524): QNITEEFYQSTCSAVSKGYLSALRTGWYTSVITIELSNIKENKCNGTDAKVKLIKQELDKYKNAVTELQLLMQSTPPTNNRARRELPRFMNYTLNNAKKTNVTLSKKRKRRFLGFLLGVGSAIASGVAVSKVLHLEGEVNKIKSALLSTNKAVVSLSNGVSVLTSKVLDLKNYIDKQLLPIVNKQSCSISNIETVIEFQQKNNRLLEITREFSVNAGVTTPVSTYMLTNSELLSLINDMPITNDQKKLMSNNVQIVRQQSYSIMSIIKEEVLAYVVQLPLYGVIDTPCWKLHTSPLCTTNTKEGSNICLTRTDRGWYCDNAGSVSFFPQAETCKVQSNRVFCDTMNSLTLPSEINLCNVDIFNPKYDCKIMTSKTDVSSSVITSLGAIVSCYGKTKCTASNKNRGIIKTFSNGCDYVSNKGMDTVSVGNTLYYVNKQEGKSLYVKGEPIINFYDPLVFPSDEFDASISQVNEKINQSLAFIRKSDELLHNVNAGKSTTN
T1 sequence (P03420 26-524): as above

Binder	Kd [1] [nM]	Kd [2] [nM]	Kd [3] [nM]
CH1129 (M1129HuGamma1,Kappa) (antibody, V domains shown) VH: QVELQESGPGILQPSQTLSLTCSFSGFSLSTSGMSVGWIRQPSGEGLEWLADIWWDDKKDYNPSLKSRLTISKDTSSNQVFLKITGVDTADTATYYCARSMITNWYFDVWGAGTTVTVSS VL: DIQLTQSPAIMSASPGEKVTMTCSASSSVGYMHWYQQKSSTSPKLWIYDTSKLASGVPGRFSGSGSGNSYSLTISSIQAEDVATYYCFQGSGYPFTFGGGTKLEIK	1.5	10	–
M1129 (antibody, V domains shown) VH: QVELQESGPGILQPSQTLSLTCSFSGFSLSTSGMSVGWIRQPSGEGLEWLADIWWDDKKDYNPSLKSRLTISKDTSSNQVFLKITGVDTADTATYYCARSMITNWYFDVWGAGTTVTVSS VL: DIQLTQSPAIMSASPGEKVTMTCSASSSVGYMHWYQQKSSTSPKLWIYDTSKLASGVPGRFSGSGSGNSYSLTISSIQAEDVATYYCFQGSGYPFTFGGGTKLEIK	11.4	–	–
H1308F (antibody, V domains shown) VH: QVQLVQSGAEVKKPGASVKVSCKASGFNIKDYYIYWVRQAPGQGLEWIGWIDPENGNTVFDPKFQGRVTMTRDTSTSTVYMELSSLRSEDTAVYYCAYYGTSSFDFWGQGTTLTVSS VL: DIQMTQSPSTLSASVGDRVTITCKASQDINRYLNWYQQKPGKAPKLLIYRANRLVDGVPSRFSGSGSGTEFTLTISSLQPDDFATYYCLQFHEFPYTFGGGTKLEIK	2.5	–	–
H1129 (humanized 1129) (antibody, V domains shown) VH: QVTLRESGPALVKPSQTLTLTCSFSGFSLSTSGMSVGWIRQPSGKALEWLADIWWDDKKDYNPSLKSRLTISKDTSKNQVVLKVTNVDPADTATYYCARSMITNWYFDVWGAGTTVTVSS VL: DIQMTQSPSTLSASVGDRVTITCKCQLSVGYMHWYQQKPGKAPKLWIYDTSKLASGVPSRFSGSGSGTEFTLTISSLQPDDFATYYCFQGSGYPFTFGGGTKLEIK	1.4	–	0.7
M1308F (antibody, V domains shown) VH: EVQLQQSGAELVRPGALVKLSCKASGFNIKDYYIYWVKQRPEQGLEWIGWIDPENGNTVFDPKFQGKASITSDTSSNTAYLQLSSLTSEDTAVYYCAYYGTSSFDFWGQGTTLTVSS VL: DIKMTQSPSSMYVSLGERVTITCKASQDINRYLNWFQQKPGKSPKTLIHRANRLVDGVPSRFSGSGSGQEYSLTISSLEFEDMGIYYCLQFHEFPYTFGGGTKLEIK	1.1	–	–
